Results taken from the nanobody polyreactivity screen of Harvey et al. (2022).

test: yeast display, Sf9 membrane polyspecificity reagent, FACS + sequencing; frameworks hold sequencing errors
Summary of the method: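 Galactose-induced (36–48 hours) yeast carrying a synthetic nanobody display library were exposed to 10% biotinylated, detergent-solubilized Sf9 membrane reagent at 4 °C for 1 hour. FACS followed streptavidin microbead enrichment, using low and high (top ~1%) gates for expression (anti-HA) and reagent binding (streptavidin). Colony PCR, MiSeq 2 × 250 sequencing and CDR-length filtering followed. Labels for polyreactivity reflect the gate of origin.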

Sequence	polyreactivity (PSR sort gate)
QVQLVESGGGLVQAGGSLRLSCAASGSIFVVYTMGWYRQAPGKERELVAAITQNGGSSTYYADSVKGRFTISRDNAKNTVYLQMNSLKPEDTAVYYCNKDILSPVVRIFKYGYDMDYWGQGTQVTVSS	low polyreactivity
QVQLVESGGGLVQAGGSLRLSCAASGSIFVWYAMGRYRQAPGQERELVARITSGGRTNYADSVKGRFTISRDNAKNTVYLQMISLKPEDTAVYYCAAGRVSWSPDYYWGQGTQGTVSS	high polyreactivity
QVQLVESGGGLVQAGGSLRLSCAASGSIFVYNAMGWYRQAPGKEMELVAAISTSGGRTYYADSVKGRFTISRDNAKNTVYLQMNSLKTEDTAVYYCNALGYWRRVVDGFDYWGQGTQVTVSS	high polyreactivity
QVQLVESGGGLVQAGGSLRLSCAASGSIFVYNAMGWYRQAPGKERELVAAISSSGGSTYYADSVKGRFTISRDNAKNTVYLQMNSLKPEDTAVYYCAAEAVRKVPSYYSYAYYYWGQGTQVTVSS	high polyreactivity
QVQLVESGGGLVQAGGSLRLSCAASGSIFVYNAMGWYRQAPGKERELVAAITNGGSTNYADSVKGRFTISRDNAKNTVYLQMNSLNPEDTAVYYCAARRYTSAVWWRPRHYYWGQGTQVTVSS	high polyreactivity
QVQLVESGGGLVQAGGSLRLSCAASGSIFVYNAMGWYRQAPGKERELVAGITFIGGSTYYADSVKGRFTISRDNPKNTVYLQMNSLKPEDTAVYYCNADVAPGIFYGYDSWGQGTQVTVSS	low polyreactivity
QVQLVESGGGLVQAGGSLRLSCAASGSIFVYNAMGWYRQAPGKEWELVAAISFSGGDTYYADSVKGRFTISRDNAKNTVYLQMNSLKPEDTAVYYCNVDNSEYEGDYWGQGTQVTVSS	low polyreactivity
QVQLVESGGGLVQAGGSLRLSCAASGSIFVYNTMAWYRPAPVKERELVAAISSSGGSTYYADSVKGRFTISRDNAKNTVYLQMNSLKPEDTAVYYCAKGPLYSLFFQLDAPYRYGYWGQGTQVTVSS	low polyreactivity
QVQLVESGGGLVQAGGSLRLSCAASGSIFVYYAMGWYRQAPGKERELVAAISQRGGRTYYADSVKGRFTISRDNAKNTVYLQMNSLKPEDTAVYYCAARAWTRSVPYGFYYWGQGTQVTVSS	high polyreactivity
QVQLVESGGGLVQAGGSLRLSCAASGSIFVYYAMGWYRQAPGKERELVAAISSRGGRTYYADSVKGRFTISRDNAKNTVYLQMNSLKPEDTAVYYCAAVSSRLWLYDYWGQGTQVTVSS	high polyreactivity
QVQLVESGGGLVQAGGSLRLSCAASGSIFVYYAMGWYRQAPGKERELVAAISSTGGRTYYADSVKGRFTISRDNAKNTVYLQMNSLNPEDTAVYYCAKDYGSYFIFLSYPRSRYDYWGQGTQVTVSS	low polyreactivity
QVQLVESGGGLVQAGGSLRLSCAASGSIFVYYAMGWYRQAPGKERELVAAITWSSGRTYYADSVKGRFTISRDNAKNTVYLQMNSLKPEDTAVYYWNVLTRYYLGYDYWGQGTQVTVSS	high polyreactivity
QVQLVESGGGLVQAGGSLRLSCAASGSIFVYYGMGWYRQAPGKERELFAAISSGGSTHYADSVKGRFTISRDNAKNTVYLQMNSLKPEDTAVYYCAADRFFWLRSYPRYYYWGQGTQVTVSS	low polyreactivity
QVQLVESGGGLVQAGGSLRLSCAASGSIFVYYTMGWYRQAPGKERELVASITSGGNTNYADSVKGRFTISRDNAKNTVYLQMNSLKPEDTAVYYCAADYQTVTQADWGTVYDYDYWGQGTQVTVSS	low polyreactivity
QVQLVESGGGLVQAGGSLRLSCAASGSIFWANAKGWYRQAPGKERELVATITSGGRTYYADSVKGRFTISRDNAKNTVYLQMNSLKPEDTAVYYCARVPPQYRWGRRLVYVHVDYWGQGTQVTVSS	low polyreactivity
QVQLVESGGGLVQAGGSLRLSCAASGSIFWANAMGWYRQAPGKERELVASISSGGSTNYADSVKGRFTISRDNAKNTVYLQMNSLKPEDTAVYYCAADYSHSYIGYDYWGQGTQVTVSS	low polyreactivity
